{"source": "FireProtDB (doi:10.1016/j.jmb.2011.02.053)", "proteins": {"B1": {"name": "Guanyl-specific ribonuclease T1 wild type, P00651 (protein)", "chain": "MMYSKLLTLTTLLLPTALALPSLVERACDYTCGSNCYSSSDVSTAQAAGYQLHEDGETVGSNSYPHKYNNYEGFDFSVSSPYYEWPILSSGDVYSGGSPGADRVVFNENNQLAGVITHTGASGNNFVECT"}, "B2": {"name": "Variable large protein wild type, O06878 (protein)", "chain": "MKKISSAILLTTFFVFINCKSQVADKDDPTNKFYQSVIQLGNGFLDVFTSFGGLVAEAFGFKSDPKKSDVKTYFTTVAAKLEKTKTDLNSLPKEKSDISSTTGKPDSTGSVGTAVEGAIKEVSELLDKLVKAVKTAEGASSGTAAIGEVVADADAAKVADKASVKGIAKGIKEIVEAAGGSEKLKAVAAAKGENNKGAGKLFGKAGAAAHGDSEAASKAAGAVSAVSGEQILSAIVTAADAAEQDGKKPEEAKNPIAAAIGDKDGGAEFGQDEMKKDDQIAAAIALRGMAKDGKFAVKDGEKEKAEGAIKGAAESAVRKVLGAITGLIGDAVSSGLRKVGDSVKAASKETPPALNK"}, "B3": {"name": "Guanyl-specific ribonuclease Sa wild type, P05798 (protein)", "chain": "DVSGTVCLSALPPEATDTLNLIASDGPFPYSQDGVVFQNRESVLPTQSYGYYHEYTVITPGARTRGTRRIITGEATQEDYYTGDHYATFSLIDQTC"}}, "details": "pH 7, Fluorescence, transition: 2, reversible: yes, whole UniProt chain shown; for denaturant midpoint (higher = more stable) / unfolding free energy: 25 °C, Urea", "key": {"[1]": {"details": "Aspergillus oryzae (strain ATCC 42149 / RIB 40), MOPS 30mM"}, "[2]": {"details": "Borreliella burgdorferi, Sodium phosphate 5mM"}}}
{"protein": "B1", "values": [{"measurement": "denaturant midpoint (higher = more stable)", "setting": "[1]", "result": 5.3, "unit": "M"}, {"measurement": "unfolding free energy", "setting": "[1]", "result": 6.4, "unit": "kcal/mol"}]}
{"protein": "B2", "values": [{"measurement": "denaturant midpoint (higher = more stable)", "setting": "[2]", "result": 1.19, "unit": "M"}, {"measurement": "unfolding free energy", "setting": "[2]", "result": 4.6, "unit": "kcal/mol"}]}
{"protein": "B3", "values": [{"measurement": "unfolding enthalpy (calorimetric)", "setting": "Kitasatospora aureofaciens, Thermal, MOPS 30mM", "result": 92, "unit": "kcal/mol"}]}
